Measured values reported in patent EP2605788B1.

Legend:
Experiment in all cases: cell-based or functional assay
[1] = biological target: CD22 (human) (UniProt P20273)
[2] = biological target: CD20 (human) (UniProt P11836)
[3] = biological target: CD74 (human) (UniProt P04233)
CD74 (human), sequence (P04233 whole entry): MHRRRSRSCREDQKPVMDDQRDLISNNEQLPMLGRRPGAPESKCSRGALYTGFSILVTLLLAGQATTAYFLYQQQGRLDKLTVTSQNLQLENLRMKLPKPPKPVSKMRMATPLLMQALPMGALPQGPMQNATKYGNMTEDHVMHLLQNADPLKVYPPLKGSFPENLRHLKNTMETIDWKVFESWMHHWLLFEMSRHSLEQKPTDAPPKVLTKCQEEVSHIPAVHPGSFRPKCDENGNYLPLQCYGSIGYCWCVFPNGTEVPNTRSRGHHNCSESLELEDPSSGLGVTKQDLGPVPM

CD20 (human), sequence (P11836 whole entry): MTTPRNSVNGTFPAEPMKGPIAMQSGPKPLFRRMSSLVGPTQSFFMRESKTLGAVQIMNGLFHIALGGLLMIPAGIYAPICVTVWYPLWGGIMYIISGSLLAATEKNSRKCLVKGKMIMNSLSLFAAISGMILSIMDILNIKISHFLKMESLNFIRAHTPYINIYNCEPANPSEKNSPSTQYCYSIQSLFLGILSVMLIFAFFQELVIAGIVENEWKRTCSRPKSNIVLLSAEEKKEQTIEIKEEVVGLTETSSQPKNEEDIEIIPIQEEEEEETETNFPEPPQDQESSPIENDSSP

Row | Substance | in vitro cytotoxicity, NHL cell lines [1] | EC50, in vitro cytotoxicity, Daudi and Ramos [2] | EC50, in vitro cytotoxicity, Jeko-1 [2] | fold more potent than 22-Rap, in vitro cytotoxicity, Jeko-1 [2] | in vitro cytotoxicity, NHL cell lines [2] | EC50, MTS assay, CLL (WAC, MEC-1), ALL (REH-1, MN60) and MM (CAG, RPMI8226, KMS11, KMS12-BM, KMS12-PE) lines [3] | homotypic adhesion (%), JeKo-1, 10 nM, 2 h [3] | homotypic adhesion (%), JeKo-1, 10 nM, 24 h [3] | homotypic adhesion (%), JeKo-1, 10 nM, 2 h [2] | homotypic adhesion (%), JeKo-1, 10 nM, 24 h [2]
1 | 22-Rap | > 1 nM | – | – | – | – | – | – | – | – | –
2 | 20-Rap | – | 0.1 nM | 0.02 nM | 25 fold | > 1 nM | – | – | – | – | –
3 | 20-(74)-(74) (bispecific antibody) | – | – | – | – | – | > 100 nM | 90% | > 95% | 90% | > 95%
4 | 74-(20)-(20) (bispecific antibody) | – | – | – | – | – | > 100 nM | 90% | > 95% | 90% | > 95%
